Data from the RNAGym collection of RNA variant scans (doi:10.7554/elife.80360).

B1: CPEB3 Ribozyme (parent)
chain: GGGGGCCACAGCAGAAGCGUUCACGUCGCGGCCCCUGUCAGAUUCUGGUGAAUCUGCGAAUUCUGCUGU

Variants of: B1
Assay: self-cleavage, relative activity (ratio to wild type); higher = more cleavage; co-transcriptional

Row | Variant | self-cleavage
1 | GGGGGCGACAGCAGAAGCGUUCACGUCGCGGCCCCUGUCAGAUUCUGGUGAAUCUGCGAAUUCUGCCGU [C7G U67C] | 0.635
2 | GGGGGCGACAGCAGAAGCGUUCACGUCGCGGCCCCUGUCAGAUUCUGGUGAAUCUGCGAAUUCUGCAGU [C7G U67A] | 0.773
3 | GGGGGCUACAGCAGAAGCGUUCCCGUCGCGGCCCCUGUCAGAUUCUGGUGAAUCUGCGAAUUCUGCUGU [C7U A23C] | 0.87
4 | GGGGGCUACAGCAGAAGCGUUCGCGUCGCGGCCCCUGUCAGAUUCUGGUGAAUCUGCGAAUUCUGCUGU [C7U A23G] | 0.909
5 | GGGGGCUACAGCAGAAGCGUUCUCGUCGCGGCCCCUGUCAGAUUCUGGUGAAUCUGCGAAUUCUGCUGU [C7U A23U] | 0.955
6 | GGGGGCUACAGCAGAAGCGUUGACGUCGCGGCCCCUGUCAGAUUCUGGUGAAUCUGCGAAUUCUGCUGU [C7U C22G] | 0.117
7 | GGGGGCUACAGCAGAAGCGUUAACGUCGCGGCCCCUGUCAGAUUCUGGUGAAUCUGCGAAUUCUGCUGU [C7U C22A] | 0.103
8 | GGGGGCUACAGCAGAAGCGUUCACGUGGCGGCCCCUGUCAGAUUCUGGUGAAUCUGCGAAUUCUGCUGU [C7U C27G] | 0.159
9 | GGGGGCUACAGCAGAAGCGUUCACGUUGCGGCCCCUGUCAGAUUCUGGUGAAUCUGCGAAUUCUGCUGU [C7U C27U] | 0.247
10 | GGGGGCUACAGCAGAAGCGUUCACGUAGCGGCCCCUGUCAGAUUCUGGUGAAUCUGCGAAUUCUGCUGU [C7U C27A] | 0.289
11 | GGGGGCUACAGCAGAAGCGUUCACGUCGCGGGCCCUGUCAGAUUCUGGUGAAUCUGCGAAUUCUGCUGU [C7U C32G] | 0.148
12 | GGGGGCUACAGCAGAAGCGUUCACGUCGCGGACCCUGUCAGAUUCUGGUGAAUCUGCGAAUUCUGCUGU [C7U C32A] | 0.436
13 | GGGGGCGACAGCAGAAGCGUUCACGUCGCGGCCCCUGUCAGAUUCUGGUGAAACUGCGAAUUCUGCUGU [C7G U53A] | 0.219
14 | GGGGGCGACAGCAGAAGCGUUCACGUCGCGGCCCCUGUCAGAUUCUGGUGAAGCUGCGAAUUCUGCUGU [C7G U53G] | 0.147
15 | GGGGGCGACAGCAGAAGCGUUCACGUCGCGGCCCCUGUCAGAUUCUGGUGAACCUGCGAAUUCUGCUGU [C7G U53C] | 0.217
16 | GGGGGCUACAGCAGAAGCGUUCACGUCGCGGCCCCUGUCAGAUUCUGGUGACUCUGCGAAUUCUGCUGU [C7U A52C] | 0.914
17 | GGGGGCUACAGCAGCAGCGUUCACGUCGCGGCCCCUGUCAGAUUCUGGUGAAUCUGCGAAUUCUGCUGU [C7U A15C] | 0.693
18 | GGGGGCUACAGCAGUAGCGUUCACGUCGCGGCCCCUGUCAGAUUCUGGUGAAUCUGCGAAUUCUGCUGU [C7U A15U] | 0.534
19 | GGGGGCUACAGCAGGAGCGUUCACGUCGCGGCCCCUGUCAGAUUCUGGUGAAUCUGCGAAUUCUGCUGU [C7U A15G] | 0.927
20 | GGGGGCUGCAGCAGAAGCGUUCACGUCGCGGCCCCUGUCAGAUUCUGGUGAAUCUGCGAAUUCUGCUGU [C7U A8G] | 0.918
21 | GGGGGCUUCAGCAGAAGCGUUCACGUCGCGGCCCCUGUCAGAUUCUGGUGAAUCUGCGAAUUCUGCUGU [C7U A8U] | 0.945
22 | GGGGGCUCCAGCAGAAGCGUUCACGUCGCGGCCCCUGUCAGAUUCUGGUGAAUCUGCGAAUUCUGCUGU [C7U A8C] | 0.954
23 | GGGGGCUACAGCAGAAGCGUUCACGUCGCGGCCCCUGUCCGAUUCUGGUGAAUCUGCGAAUUCUGCUGU [C7U A40C] | 0.282
24 | GGGGGCUACAGCAGAAGCGUUCACGUCGCGGCCCCUGUCUGAUUCUGGUGAAUCUGCGAAUUCUGCUGU [C7U A40U] | 0.683
25 | GGGGGCUACAGCAGAAGCGUUCACGUCGCGGCCCCUGUCGGAUUCUGGUGAAUCUGCGAAUUCUGCUGU [C7U A40G] | 0.934
26 | GGGGGCGACAGCAGAAGCGUUCACGUCGCGGCCCCUGUCAGAUUCUGGUGAAUCUGCGAACUCUGCUGU [C7G U61C] | 0.175

Row | Variant | self-cleavage
27 | GGGGGCGACAGCAGAAGCGUUCACGUCGCGGCCCCUGUCAGAUUCUGGUGAAUCUGCGAAGUCUGCUGU [C7G U61G] | 0.172
28 | GGGGGCGACAGCAGAAGCGUUCACGUCGCGGCCCCUGUCAGAUUCUGGUGAAUCUGCGAAAUCUGCUGU [C7G U61A] | 0.159
29 | GGGGGCUACAGCAGAAGCGUUCACGUCGCGGCCCCUGUCAGAUUCUGGUGAAUCUGAGAAUUCUGCUGU [C7U C57A] | 0.35
30 | GGGGGCUACAGCAGAAGCGUUCACGUCGCGGCCCCUGUCAGUUUCUGGUGAAUCUGCGAAUUCUGCUGU [C7U A42U] | 0.899
31 | GGGGGCUACAGCAGAAGCGUUCACGUCGCGGCCCCUGUCAGCUUCUGGUGAAUCUGCGAAUUCUGCUGU [C7U A42C] | 0.901
32 | GGGGGCUACAGCAGAAGCGUUCACGUCGCGGCCCCUGUGAGAUUCUGGUGAAUCUGCGAAUUCUGCUGU [C7U C39G] | 0.911
33 | GGGGGCUACAGCAGAAGCGUUCACGUCGCGGCCCCUGUAAGAUUCUGGUGAAUCUGCGAAUUCUGCUGU [C7U C39A] | 0.686
34 | GGGGGCUACAGCAGAAGCGUUCACGUCGCGGCCCCUGUUAGAUUCUGGUGAAUCUGCGAAUUCUGCUGU [C7U C39U] | 0.803
35 | GGGGGCUACAGAAGAAGCGUUCACGUCGCGGCCCCUGUCAGAUUCUGGUGAAUCUGCGAAUUCUGCUGU [C7U C12A] | 0.555
36 | GGGGGCUACUGCAGAAGCGUUCACGUCGCGGCCCCUGUCAGAUUCUGGUGAAUCUGCGAAUUCUGCUGU [C7U A10U] | 0.981
37 | GGGGGCUACGGCAGAAGCGUUCACGUCGCGGCCCCUGUCAGAUUCUGGUGAAUCUGCGAAUUCUGCUGU [C7U A10G] | 0.947
38 | GGGGGCUACCGCAGAAGCGUUCACGUCGCGGCCCCUGUCAGAUUCUGGUGAAUCUGCGAAUUCUGCUGU [C7U A10C] | 0.994
39 | GGGGGCGACAGCAGAAGCGUUCACGUCGCGGCCCCUGUCAGAUUCUGGGGAAUCUGCGAAUUCUGCUGU [C7G U49G] | 0.469
40 | GGGGGCUACAGCAGAAGCGUUCACGUCGCGGCACCUGUCAGAUUCUGGUGAAUCUGCGAAUUCUGCUGU [C7U C33A] | 0.656
41 | GGGGGCUACAGCAGAAGCGUUCACGUCGCGGCGCCUGUCAGAUUCUGGUGAAUCUGCGAAUUCUGCUGU [C7U C33G] | 0.245
42 | GGGGGCUACAGCAGAAGCGUUCACGUCGCGGCUCCUGUCAGAUUCUGGUGAAUCUGCGAAUUCUGCUGU [C7U C33U] | 0.939
43 | GGGGGCUACAGCAGAAGCGUUCACGUCGCGGCCCCUGUCAGAUUGUGGUGAAUCUGCGAAUUCUGCUGU [C7U C45G] | 1.02
44 | GGGGGCUACAGCAGAAGCGUUCACGUCGCGGCCCCUGUCAGAUUUUGGUGAAUCUGCGAAUUCUGCUGU [C7U C45U] | 0.892
45 | GGGGGCUACAGCAGAAGCGUUCACGUCGCGGCCCCUGUCAGAUUAUGGUGAAUCUGCGAAUUCUGCUGU [C7U C45A] | 0.919
46 | GGGGGCUACAGCAGAAGCGUUCACGUCGCGGCCCCUGUCAGAUUCUGGUGAAUCUGCGAAUUCUGCUGU [C7U] | 0.968
47 | GGGGGCUACAGCAGAAGCGUUCACGUCGCGGCCCCUGUCAGAUUCUGGUGAAUCUGCGCAUUCUGCUGU [C7U A59C] | 0.403
48 | GGGGGCUACAGCAGAAGCGUUCACGUCGCGGCCCCUGUCAGAUUCUGGUGAAUCUGCGGAUUCUGCUGU [C7U A59G] | 0.93
49 | GGGGGCUACAGCAGAAGCGUUCACGUCGCGGCCCCUGUCAGAUUCUGGUGAAUCUGCGUAUUCUGCUGU [C7U A59U] | 0.554
50 | GGGGGCUACAGCAGAAGCGUUCACGUCGCGGCCCCUGUCAGAUUCUGGUGUAUCUGCGAAUUCUGCUGU [C7U A51U] | 0.976
51 | GGGGGCUACAGCAGAAGCGUUCACGUCGCGGCCCCUGUCAGAUUCUGGUGCAUCUGCGAAUUCUGCUGU [C7U A51C] | 0.966
52 | GGGGGCUACAGCAGAAGCGUUCACGUCGCGGCCCCUGUCAGAUUCUGGUGGAUCUGCGAAUUCUGCUGU [C7U A51G] | 0.984

Row | Variant | self-cleavage
53 | GGGGGCUACAGCAGAAGCGUUCACGUCGCGGCCACUGUCAGAUUCUGGUGAAUCUGCGAAUUCUGCUGU [C7U C34A] | 0.521
54 | GGGGGCUACAGCAGAAGCGUUCAAGUCGCGGCCCCUGUCAGAUUCUGGUGAAUCUGCGAAUUCUGCUGU [C7U C24A] | 0.499
55 | GGGGGCUACAGCAGAAGCGUUCACGUCGCGGCCCCUGUCAGAUUCUGGUGAAUCUGCGAGUUCUGCUGU [C7U A60G] | 0.789
56 | GGGGGCUACAGCAGAAGCGUUCACGUCGCGGCCCCUGUCAGAUUCUGGUGAAUCUGCGAUUUCUGCUGU [C7U A60U] | 0.244
57 | GGGGGCUACAGCAGAAGCGUUCACGUCGCGGCCCUUGUCAGAUUCUGGUGAAUCUGCGAAUUCUGCUGU [C7U C35U] | 0.947
58 | GGGGGCUACAGCGGAAGCGUUCACGUCGCGGCCCCUGUCAGAUUCUGGUGAAUCUGCGAAUUCUGCUGU [C7U A13G] | 0.936
59 | GGGGGCUACAGCCGAAGCGUUCACGUCGCGGCCCCUGUCAGAUUCUGGUGAAUCUGCGAAUUCUGCUGU [C7U A13C] | 0.871
60 | GGGGGCUACAGCAGAUGCGUUCACGUCGCGGCCCCUGUCAGAUUCUGGUGAAUCUGCGAAUUCUGCUGU [C7U A16U] | 0.617
61 | GGGGGCUACAGCAGACGCGUUCACGUCGCGGCCCCUGUCAGAUUCUGGUGAAUCUGCGAAUUCUGCUGU [C7U A16C] | 0.145
62 | GGGGGCGACAGCAGAAGCGUUCACGUCGCGGCCCCUGUCAGAUUCUGGUGAAUCUGCGAAUGCUGCUGU [C7G U62G] | 0.244
63 | GGGGGCGACAGCAGAAGCGUUCACGUCGCGGCCCCUGUCAGAUUCUGGUGAAUCUGCGAAUCCUGCUGU [C7G U62C] | 0.285
64 | GGGGGCGACAGCAGAAGCGUUCACGUCGCGGCCCCUGUCAGAUUCUGGUGAAUCUGCGAAUUCUGCUGC [C7G U69C] | 0.861
65 | GGGGGCGACAGCAGAAGCGUUCACGUCGCGGCCCCUGUCAGAUUCUGGUGAAUCUGCGAAUUCUGCUGG [C7G U69G] | 0.779
66 | GGGGGCGACAGCAGAAGCGUUCACGUCGCGGCCCCUGUCAGAUUCUGGUGAAUCUGCGAAUUCCGCUGU [C7G U64C] | 0.17
67 | GGGGGCGACAGCAGAAGCGUUCACGUCGCGGCCCCUGUCAGAUUCUGGUGAAUCUGCGAAUUCAGCUGU [C7G U64A] | 0.279
68 | GGGGGCGACAGCAGAAGCGUUCACGUCGCGGCCCCUGUCAGAUUCUGGUGAAUCUGCGAAUUCGGCUGU [C7G U64G] | 0.232
69 | GGGGGCUAGAGCAGAAGCGUUCACGUCGCGGCCCCUGUCAGAUUCUGGUGAAUCUGCGAAUUCUGCUGU [C7U C9G] | 1.01
70 | GGGGGCUAUAGCAGAAGCGUUCACGUCGCGGCCCCUGUCAGAUUCUGGUGAAUCUGCGAAUUCUGCUGU [C7U C9U] | 1.06
71 | GGGGGCUAAAGCAGAAGCGUUCACGUCGCGGCCCCUGUCAGAUUCUGGUGAAUCUGCGAAUUCUGCUGU [C7U C9A] | 1.05
72 | GGGGGCGACAGCAGAAGCGUUCACGUCGCGGCCCCUGUCAGAUUCUGGUGAAUCCGCGAAUUCUGCUGU [C7G U55C] | 0.185
73 | GGGGGCGACAGCAGAAGCGUUCACGUCGCGGCCCCUGUCAGAUUCUGGUGAAUCGGCGAAUUCUGCUGU [C7G U55G] | 0.119
74 | GGGGGCGACAGCAGAAGCGUUCACGUCGCGGCCCCUGUCAGAUUCUGGUGAAUCAGCGAAUUCUGCUGU [C7G U55A] | 0.124
75 | GGGGGCUACAGCAGAAGAGUUCACGUCGCGGCCCCUGUCAGAUUCUGGUGAAUCUGCGAAUUCUGCUGU [C7U C18A] | 0.165
76 | GGGGGCUACAGCAGAAGUGUUCACGUCGCGGCCCCUGUCAGAUUCUGGUGAAUCUGCGAAUUCUGCUGU [C7U C18U] | 0.702
77 | GGGGGCUACAGCAGAAGCGUUCACGUCGCGGCCCCUGUCAGAUUCUGGUGAAUAUGCGAAUUCUGCUGU [C7U C54A] | 0.831
78 | GGGGGCUACAGCAGAAGCGUUCACGUCGCGGCCCCUGUCAGAUUCUGGUGAAUUUGCGAAUUCUGCUGU [C7U C54U] | 0.967
